Source: US20250295737A1 (AstraZeneca / MedImmune, published 2025)
Each block holds one binder with its values, some of them ahead of it.

Columns and labels:
Assay in all cases: cell-based or functional assay
human RXFP1 = molecular target: T1, human RXFP1 (human, UniProt Q9HBX9 1-757)
T1 sequence (looked up): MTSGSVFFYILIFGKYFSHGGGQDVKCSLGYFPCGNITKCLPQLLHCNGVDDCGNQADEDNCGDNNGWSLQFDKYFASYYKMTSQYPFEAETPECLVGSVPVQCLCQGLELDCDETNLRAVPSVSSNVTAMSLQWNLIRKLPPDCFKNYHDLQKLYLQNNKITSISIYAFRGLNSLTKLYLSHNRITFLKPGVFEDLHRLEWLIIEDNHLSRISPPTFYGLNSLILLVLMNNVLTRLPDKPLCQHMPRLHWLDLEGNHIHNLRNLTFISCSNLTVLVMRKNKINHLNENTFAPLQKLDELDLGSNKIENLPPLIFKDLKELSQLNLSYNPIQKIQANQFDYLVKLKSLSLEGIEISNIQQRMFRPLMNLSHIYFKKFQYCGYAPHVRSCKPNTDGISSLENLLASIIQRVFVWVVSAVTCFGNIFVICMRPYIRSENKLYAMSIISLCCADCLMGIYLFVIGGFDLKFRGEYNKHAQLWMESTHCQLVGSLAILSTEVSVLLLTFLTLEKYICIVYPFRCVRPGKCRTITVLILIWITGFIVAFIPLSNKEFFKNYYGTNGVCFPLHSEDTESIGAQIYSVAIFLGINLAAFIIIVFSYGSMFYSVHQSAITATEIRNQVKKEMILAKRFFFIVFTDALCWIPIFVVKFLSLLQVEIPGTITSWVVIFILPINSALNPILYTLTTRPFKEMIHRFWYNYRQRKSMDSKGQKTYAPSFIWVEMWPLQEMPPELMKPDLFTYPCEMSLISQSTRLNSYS

mouse RXFP1 = molecular target: T2, mouse RXFP1 (mouse, UniProt Q6R6I7 1-758)
T2 sequence (looked up): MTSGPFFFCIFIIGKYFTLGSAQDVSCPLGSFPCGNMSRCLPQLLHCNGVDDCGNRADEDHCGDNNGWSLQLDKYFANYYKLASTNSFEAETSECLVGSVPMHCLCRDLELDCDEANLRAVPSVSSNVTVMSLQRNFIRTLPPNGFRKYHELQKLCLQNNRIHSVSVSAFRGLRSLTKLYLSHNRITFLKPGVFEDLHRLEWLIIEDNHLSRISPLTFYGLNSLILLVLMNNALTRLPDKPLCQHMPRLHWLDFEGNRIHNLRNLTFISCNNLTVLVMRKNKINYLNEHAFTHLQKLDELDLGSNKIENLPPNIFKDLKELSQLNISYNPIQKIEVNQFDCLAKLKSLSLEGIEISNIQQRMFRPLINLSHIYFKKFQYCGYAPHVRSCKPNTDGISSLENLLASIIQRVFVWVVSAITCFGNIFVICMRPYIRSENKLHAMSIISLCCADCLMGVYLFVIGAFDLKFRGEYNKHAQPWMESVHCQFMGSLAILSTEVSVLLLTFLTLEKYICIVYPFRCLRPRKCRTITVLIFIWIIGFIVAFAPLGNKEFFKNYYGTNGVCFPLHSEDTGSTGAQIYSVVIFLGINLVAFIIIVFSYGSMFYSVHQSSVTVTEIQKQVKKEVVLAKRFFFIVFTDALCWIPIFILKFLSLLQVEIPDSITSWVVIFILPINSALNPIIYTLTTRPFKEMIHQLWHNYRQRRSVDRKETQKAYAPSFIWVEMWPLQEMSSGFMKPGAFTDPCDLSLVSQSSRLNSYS

human RXFP2 = human RXFP2 (human, UniProt Q8WXD0 1-754)
Chain of human RXFP2 (Q8WXD0 whole entry): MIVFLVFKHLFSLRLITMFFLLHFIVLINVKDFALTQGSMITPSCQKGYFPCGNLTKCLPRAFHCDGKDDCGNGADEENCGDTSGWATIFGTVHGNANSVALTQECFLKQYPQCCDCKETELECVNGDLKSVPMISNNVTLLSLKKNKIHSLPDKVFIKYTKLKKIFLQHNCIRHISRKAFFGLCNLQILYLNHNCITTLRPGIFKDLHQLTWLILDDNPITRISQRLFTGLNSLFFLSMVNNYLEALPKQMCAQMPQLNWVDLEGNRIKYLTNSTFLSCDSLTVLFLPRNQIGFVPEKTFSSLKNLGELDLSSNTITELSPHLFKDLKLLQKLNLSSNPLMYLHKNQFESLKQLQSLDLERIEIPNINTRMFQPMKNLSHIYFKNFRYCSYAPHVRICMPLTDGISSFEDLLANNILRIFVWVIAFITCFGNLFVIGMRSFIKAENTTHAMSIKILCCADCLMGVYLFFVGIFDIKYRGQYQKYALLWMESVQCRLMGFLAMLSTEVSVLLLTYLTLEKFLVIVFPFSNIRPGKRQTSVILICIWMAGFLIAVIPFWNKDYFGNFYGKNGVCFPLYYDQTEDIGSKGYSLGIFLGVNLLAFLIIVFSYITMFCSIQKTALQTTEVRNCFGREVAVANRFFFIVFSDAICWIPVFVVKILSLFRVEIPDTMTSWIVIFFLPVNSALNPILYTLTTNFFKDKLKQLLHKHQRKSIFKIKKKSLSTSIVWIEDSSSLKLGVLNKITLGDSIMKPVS

B1: RELAX0085 (Fc fusion)
chain 1: DKTHTCPPCPAPEFEGGPSVFLFPPKPKDTLMISRTPEVTCVVVDVSHEDPEVKFNWYVDGVEVHNAKTKPREEQYNSTYRVVSVLTVLHQDWLNGKEYKCKVSNKALPASIEKTISKAKGQPREPQVYTLPPCREEMTKNQVSLWCLVKGFYPSDIAVEWESNGQPENNYKTTPPVLDSDGSFFLYSKLTVDKSRWQQGNVFSCSVMHEALHNHYTQKSLSLSPGGGGGSGGGGSGGGGSGGGGGSQLYSALANKCCHVGCTKRSLARFC
chain 2: DKTHTCPPCPAPEFEGGPSVFLFPPKPKDTLMISRTPEVTCVVVDVSHEDPEVKFNWYVDGVEVHNAKTKPREEQYNSTYRVVSVLTVLHQDWLNGKEYKCKVSNKALPASIEKTISKAKGQPREPQVCTLPPSREEMTKNQVSLSCAVKGFYPSDIAVEWESNGQPENNYKTTPPVLDSDGSFFLVSKLTVDKSRWQQGNVFSCSVMHEALHNHYTQKSLSLSPGAPAPAPAPAPAPAPAPAPAGSSWMEEVIKLCGRELVRAQIAICGMSTWS
EC50 hRXFP1 (M), cAMP HTRF assay (human RXFP1): 6.37e-11 M | EC50 mRXFP1 (M), cAMP HTRF assay (mouse RXFP1): 3.09e-11 M | EC50 hRXFP2 (M), cAMP HTRF assay (human RXFP2): 4.67e-08 M

B2: RELAX0086 (Fc fusion)
chain 1: DKTHTCPPCPAPEFEGGPSVFLFPPKPKDTLMISRTPEVTCVVVDVSHEDPEVKFNWYVDGVEVHNAKTKPREEQYNSTYRVVSVLTVLHQDWLNGKEYKCKVSNKALPASIEKTISKAKGQPREPQVYTLPPCREEMTKNQVSLWCLVKGFYPSDIAVEWESNGQPENNYKTTPPVLDSDGSFFLYSKLTVDKSRWQQGNVFSCSVMHEALHNHYTQKSLSLSPGGGGGSGGGGSGGGGGSQLYSALANKCCHVGCTKRSLARFC
chain 2: DKTHTCPPCPAPEFEGGPSVFLFPPKPKDTLMISRTPEVTCVVVDVSHEDPEVKFNWYVDGVEVHNAKTKPREEQYNSTYRVVSVLTVLHQDWLNGKEYKCKVSNKALPASIEKTISKAKGQPREPQVCTLPPSREEMTKNQVSLSCAVKGFYPSDIAVEWESNGQPENNYKTTPPVLDSDGSFFLVSKLTVDKSRWQQGNVFSCSVMHEALHNHYTQKSLSLSPGGGGGSGGGGSGGGGSGGGGGSSWMEEVIKLCGRELVRAQIAICGMSTWS
EC50 hRXFP1 (M), cAMP HTRF assay (human RXFP1): 4.49e-11 M | EC50 mRXFP1 (M), cAMP HTRF assay (mouse RXFP1): 2.68e-11 M | EC50 hRXFP2 (M), cAMP HTRF assay (human RXFP2): 4.88e-08 M

B3: RELAX0087 (Fc fusion)
chain 1: B1 chain 1
chain 2: DKTHTCPPCPAPEFEGGPSVFLFPPKPKDTLMISRTPEVTCVVVDVSHEDPEVKFNWYVDGVEVHNAKTKPREEQYNSTYRVVSVLTVLHQDWLNGKEYKCKVSNKALPASIEKTISKAKGQPREPQVCTLPPSREEMTKNQVSLSCAVKGFYPSDIAVEWESNGQPENNYKTTPPVLDSDGSFFLVSKLTVDKSRWQQGNVFSCSVMHEALHNHYTQKSLSLSPGGGGGSGGGGSGGGGGSSWMEEVIKLCGRELVRAQIAICGMSTWS
EC50 hRXFP1 (M), cAMP HTRF assay (human RXFP1): 4.89e-11 M | EC50 mRXFP1 (M), cAMP HTRF assay (mouse RXFP1): 3.48e-11 M | EC50 hRXFP2 (M), cAMP HTRF assay (human RXFP2): 3.63e-08 M

B4: RELAX0105 (Fc fusion)
chain 1: B2 chain 1
chain 2: B1 chain 2
EC50 hRXFP1 (M), cAMP HTRF assay (human RXFP1): 7.12e-11 M | EC50 mRXFP1 (M), cAMP HTRF assay (mouse RXFP1): 1.49e-11 M | EC50 hRXFP2 (M), cAMP HTRF assay (human RXFP2): 3.33e-08 M

B5: RELAX0106 (Fc fusion)
chain 1: DKTHTCPPCPAPEFEGGPSVFLFPPKPKDTLMISRTPEVTCVVVDVSHEDPEVKFNWYVDGVEVHNAKTKPREEQYNSTYRVVSVLTVLHQDWLNGKEYKCKVSNKALPASIEKTISKAKGQPREPQVYTLPPCREEMTKNQVSLWCLVKGFYPSDIAVEWESNGQPENNYKTTPPVLDSDGSFFLYSKLTVDKSRWQQGNVFSCSVMHEALHNHYTQKSLSLSPGGGGGSGGGGGSQLYSALANKCCHVGCTKRSLARFC
chain 2: B1 chain 2
EC50 hRXFP1 (M), cAMP HTRF assay (human RXFP1): 6.96e-11 M | EC50 mRXFP1 (M), cAMP HTRF assay (mouse RXFP1): 1.98e-11 M | EC50 hRXFP2 (M), cAMP HTRF assay (human RXFP2): 4.94e-08 M

More lines, now with the values ahead:

EC50 hRXFP1 (M), cAMP HTRF assay (human RXFP1): 8.09e-11 M | EC50 mRXFP1 (M), cAMP HTRF assay (mouse RXFP1): 3.87e-11 M | EC50 hRXFP2 (M), cAMP HTRF assay (human RXFP2): 1.22e-07 M
B6: RELAX0107 (Fc fusion)
chain 1: DKTHTCPPCPAPEFEGGPSVFLFPPKPKDTLMISRTPEVTCVVVDVSHEDPEVKFNWYVDGVEVHNAKTKPREEQYNSTYRVVSVLTVLHQDWLNGKEYKCKVSNKALPASIEKTISKAKGQPREPQVYTLPPCREEMTKNQVSLWCLVKGFYPSDIAVEWESNGQPENNYKTTPPVLDSDGSFFLYSKLTVDKSRWQQGNVFSCSVMHEALHNHYTQKSLSLSPGGGGGGSQLYSALANKCCHVGCTKRSLARFC
chain 2: B1 chain 2

EC50 hRXFP1 (M), cAMP HTRF assay (human RXFP1): 1.88e-09 M | EC50 mRXFP1 (M), cAMP HTRF assay (mouse RXFP1): 1.11e-09 M | EC50 hRXFP2 (M), cAMP HTRF assay (human RXFP2): > 6.07e-08 M
B7: RELAX0110 (Fc fusion)
chain 1: B5 chain 1
chain 2: DKTHTCPPCPAPEFEGGPSVFLFPPKPKDTLMISRTPEVTCVVVDVSHEDPEVKFNWYVDGVEVHNAKTKPREEQYNSTYRVVSVLTVLHQDWLNGKEYKCKVSNKALPASIEKTISKAKGQPREPQVYTLPPCREEMTKNQVSLWCLVKGFYPSDIAVEWESNGQPENNYKTTPPVLDSDGSFFLYSKLTVDKSRWQQGNVFSCSVMHEALHNHYTQKSLSLSPGAAPAPAPAPAPAPAGSSWMEEVIKLCGRELVRAQIAICGMSTWS

EC50 hRXFP1 (M), cAMP HTRF assay (human RXFP1): 1.93e-09 M | EC50 mRXFP1 (M), cAMP HTRF assay (mouse RXFP1): 1.24e-09 M | EC50 hRXFP2 (M), cAMP HTRF assay (human RXFP2): > 6.06e-08 M
B8: RELAX0111 (Fc fusion)
chain 1: B6 chain 1
chain 2: B7 chain 2
